Source: the Human Domainome abundance scans (Beltran et al. 2025)
± gives the uncertainty stated by the source.

B1: Retinoic acid receptor beta, residues 85 to 161; numbered along this chain, P10826 (parent)
chain: YKPCFVCQDKSSGYHYGVSACEGCKGFFRRSIQKNMIYTCHRDKNCVINKVTRNRCQYCRLQKCFEVGMSKESVRND

Variants of: B1
Test: abundance fitness (aPCA) (normalised: wild type 0, dead -1); higher = more abundant; growth selection in yeast, the domain comes from the species named
Settings: Homo sapiens

Variant | abundance fitness
YKPCFVCQDKSSGYHYGVSACEGCKGFFRRSIQKNMIYTCHRDKNCVINKVTRNRCQYCRLQKCFEVGMSKESQRND | -0.012 ± 0.066
YKPCFVCQDKSSGYHYGVSACEGCKGFFRRSIQKNMIYTCHRDKNCVINKVTRNRCQYCRLQKCFEVGMSKESRRND | -0.188 ± 0.043
YKPCFVCQDKSSGYHYGVSACEGCKGFFRRSIQKNMIYTCHRDKNCVINKVTRNRCQYCRLQKCFEVGMSKESSRND | -0.035 ± 0.048
YKPCFVCQDKSSGYHYGVSACEGCKGFFRRSIQKNMIYTCHRDKNCVINKVTRNRCQYCRLQKCFEVGMSKESTRND | -0.012 ± 0.064
YKPCFVCQDKSSGYHYGVSACEGCKGFFRRSIQKNMIYTCHRDKNCVINKVTRNRCQYCRLQKCFEVGMSKESWRND | -0.14 ± 0.052
YKPCFVCQDKSSGYHYGVSACEGCKGFFRRSIQKNMIYTCHRDKNCVINKVTRNRCQYCRLQKCFEVGMSKESYRND | -0.297 ± 0.12
YKPCFVCQDKSSGYHYGVSACEGCKGFFRRSIQKNMIYTCHRDKNCVINKVTRNRCQYCRLQKCFEVGMSKESVAND | 0.137 ± 0.044
YKPCFVCQDKSSGYHYGVSACEGCKGFFRRSIQKNMIYTCHRDKNCVINKVTRNRCQYCRLQKCFEVGMSKESVCND | 0.175 ± 0.065
YKPCFVCQDKSSGYHYGVSACEGCKGFFRRSIQKNMIYTCHRDKNCVINKVTRNRCQYCRLQKCFEVGMSKESVDND | -0.051 ± 0.078
YKPCFVCQDKSSGYHYGVSACEGCKGFFRRSIQKNMIYTCHRDKNCVINKVTRNRCQYCRLQKCFEVGMSKESVEND | 0.124 ± 0.045
YKPCFVCQDKSSGYHYGVSACEGCKGFFRRSIQKNMIYTCHRDKNCVINKVTRNRCQYCRLQKCFEVGMSKESVFND | -0.187 ± 0.12
YKPCFVCQDKSSGYHYGVSACEGCKGFFRRSIQKNMIYTCHRDKNCVINKVTRNRCQYCRLQKCFEVGMSKESVGND | 0.09 ± 0.034
YKPCFVCQDKSSGYHYGVSACEGCKGFFRRSIQKNMIYTCHRDKNCVINKVTRNRCQYCRLQKCFEVGMSKESVHND | 0.078 ± 0.11
YKPCFVCQDKSSGYHYGVSACEGCKGFFRRSIQKNMIYTCHRDKNCVINKVTRNRCQYCRLQKCFEVGMSKESVKND | -0.018 ± 0.065
YKPCFVCQDKSSGYHYGVSACEGCKGFFRRSIQKNMIYTCHRDKNCVINKVTRNRCQYCRLQKCFEVGMSKESVLND | 0.102 ± 0.04
YKPCFVCQDKSSGYHYGVSACEGCKGFFRRSIQKNMIYTCHRDKNCVINKVTRNRCQYCRLQKCFEVGMSKESVNND | 0.073 ± 0.092
YKPCFVCQDKSSGYHYGVSACEGCKGFFRRSIQKNMIYTCHRDKNCVINKVTRNRCQYCRLQKCFEVGMSKESVPND | 0.039 ± 0.073
YKPCFVCQDKSSGYHYGVSACEGCKGFFRRSIQKNMIYTCHRDKNCVINKVTRNRCQYCRLQKCFEVGMSKESVQND | 0.163 ± 0.095
YKPCFVCQDKSSGYHYGVSACEGCKGFFRRSIQKNMIYTCHRDKNCVINKVTRNRCQYCRLQKCFEVGMSKESVSND | -0.045 ± 0.055

Variant | abundance fitness
YKPCFVCQDKSSGYHYGVSACEGCKGFFRRSIQKNMIYTCHRDKNCVINKVTRNRCQYCRLQKCFEVGMSKESVTND | -0.02 ± 0.06
YKPCFVCQDKSSGYHYGVSACEGCKGFFRRSIQKNMIYTCHRDKNCVINKVTRNRCQYCRLQKCFEVGMSKESVVND | 0.046 ± 0.042
YKPCFVCQDKSSGYHYGVSACEGCKGFFRRSIQKNMIYTCHRDKNCVINKVTRNRCQYCRLQKCFEVGMSKESVWND | 0.065 ± 0.043
YKPCFVCQDKSSGYHYGVSACEGCKGFFRRSIQKNMIYTCHRDKNCVINKVTRNRCQYCRLQKCFEVGMSKESVYND | 0.118 ± 0.077
YKPCFVCQDKSSGYHYGVSACEGCKGFFRRSIQKNMIYTCHRDKNCVINKVTRNRCQYCRLQKCFEVGMSKESVRAD | 0.084 ± 0.054
YKPCFVCQDKSSGYHYGVSACEGCKGFFRRSIQKNMIYTCHRDKNCVINKVTRNRCQYCRLQKCFEVGMSKESVRCD | -0.105 ± 0.079
YKPCFVCQDKSSGYHYGVSACEGCKGFFRRSIQKNMIYTCHRDKNCVINKVTRNRCQYCRLQKCFEVGMSKESVRDD | 0.018 ± 0.079
YKPCFVCQDKSSGYHYGVSACEGCKGFFRRSIQKNMIYTCHRDKNCVINKVTRNRCQYCRLQKCFEVGMSKESVRED | 0.194 ± 0.061
YKPCFVCQDKSSGYHYGVSACEGCKGFFRRSIQKNMIYTCHRDKNCVINKVTRNRCQYCRLQKCFEVGMSKESVRFD | -0.012 ± 0.11
YKPCFVCQDKSSGYHYGVSACEGCKGFFRRSIQKNMIYTCHRDKNCVINKVTRNRCQYCRLQKCFEVGMSKESVRGD | -0.048 ± 0.049
YKPCFVCQDKSSGYHYGVSACEGCKGFFRRSIQKNMIYTCHRDKNCVINKVTRNRCQYCRLQKCFEVGMSKESVRHD | -0.144 ± 0.21
YKPCFVCQDKSSGYHYGVSACEGCKGFFRRSIQKNMIYTCHRDKNCVINKVTRNRCQYCRLQKCFEVGMSKESVRID | -0.149 ± 0.13
YKPCFVCQDKSSGYHYGVSACEGCKGFFRRSIQKNMIYTCHRDKNCVINKVTRNRCQYCRLQKCFEVGMSKESVRKD | 0.01 ± 0.058
YKPCFVCQDKSSGYHYGVSACEGCKGFFRRSIQKNMIYTCHRDKNCVINKVTRNRCQYCRLQKCFEVGMSKESVRLD | 0.013 ± 0.054
YKPCFVCQDKSSGYHYGVSACEGCKGFFRRSIQKNMIYTCHRDKNCVINKVTRNRCQYCRLQKCFEVGMSKESVRMD | -0.061 ± 0.082
YKPCFVCQDKSSGYHYGVSACEGCKGFFRRSIQKNMIYTCHRDKNCVINKVTRNRCQYCRLQKCFEVGMSKESVRPD | 0.146 ± 0.066
YKPCFVCQDKSSGYHYGVSACEGCKGFFRRSIQKNMIYTCHRDKNCVINKVTRNRCQYCRLQKCFEVGMSKESVRQD | 0.058 ± 0.1
YKPCFVCQDKSSGYHYGVSACEGCKGFFRRSIQKNMIYTCHRDKNCVINKVTRNRCQYCRLQKCFEVGMSKESVRRD | -0.039 ± 0.046
